Results published in US20220050116A1.

Molecular target: synthetic collagen peptides
Experiment: ELISA-like assay: biotin-labeled peptides titrated on plate-immobilized D-CHP, 4-parameter Hill fit

Substance: D-CHP, dimeric collagen hybridizing peptide [Ac-(GPO)6-G3]2-K-GK (designed binder)
- Kd: 10 to 270 nM
